Among the data in publication PMC9907810 are stoichiometry N values, retold here.

The assay deals with SARS-CoV-2 S-2P (engineered Spike ectodomain trimer with two stabilizing proline mutations) (SARS-CoV-2). The assay is described as follows: […] (200 mM NaCl, 20 mM Tris-HCl pH 7.5), 4 °C; […].

For orientation: stoichiometry N means a count of units in the complex or per binding partner. Regarding “SARS-CoV-2 S-2P (engineered Spike ectodomain trimer with two stabilizing proline mutations) (natural protein)”, the stoichiometry N was found to be 3.
